Experimental data: IntAct's records for PubMed 10984058

B1: Myosin-2 (Saccharomyces cerevisiae), P19524 (parent)
chain: MSFEVGTRCWYPHKELGWIGAEVIKNEFNDGKYHLELQLEDDEIVSVDTKDLNNDKDQSLPLLRNPPILEATEDLTSLSYLNEPAVLHAIKQRYSQLNIYTYSGIVLIATNPFDRVDQLYTQDMIQAYAGKRRGELEPHLFAIAEEAYRLMKNDKQNQTIVVSGESGAGKTVSAKYIMRYFASVEEENSATVQHQVEMSETEQKILATNPIMEAFGNAKTTRNDNSSRFGKYLEILFDKDTSIIGARIRTYLLERSRLVYQPPIERNYHIFYQLMAGLPAQTKEELHLTDASDYFYMNQGGDTKINGIDDAKEYKITVDALTLVGITKETQHQIFKILAALLHIGNIEIKKTRNDASLSADEPNLKLACELLGIDAYNFAKWVTKKQIITRSEKIVSNLNYSQALVAKDSVAKFIYSALFDWLVENINTVLCNPAVNDQISSFIGVLDIYGFEHFEKNSFEQFCINYANEKLQQEFNQHVFKLEQEEYVKEEIEWSFIEFNDNQPCIDLIENKLGILSLLDEESRLPAGSDESWTQKLYQTLDKSPTNKVFSKPRFGQTKFIVSHYALDVAYDVEGFIEKNRDTVSDGHLEVLKASTNETLINILEGLEKAAKKLEEAKKLELEQAGSKKPGPIRTVNRKPTLGSMFKQSLIELMNTINSTNVHYIRCIKPNADKEAWQFDNLMVLSQLRACGVLETIRISCAGFPSRWTFEEFVLRYYILIPHEQWDLIFKKKETTEEDIISVVKMILDATVKDKSKYQIGNTKIFFKAGMLAYLEKLRSNKMHNSIVMIQKKIRAKYYRKQYLQISQAIKYLQNNIKGFIIRQRVNDEMKVNCATLLQAAYRGHSIRANVFSVLRTITNLQKKIRKELKQRQLKQEHEYNAAVTIQSKVRTFEPRSRFLRTKKDTVVVQSLIRRRAAQRKLKQLKADAKSVNHLKEVSYKLENKVIELTQNLASKVKENKEMTERIKELQVQVEESAKLQETLENMKKEHLIDIDNQKSKDMELQKTIENNLQSTEQTLKDAQLELEDMVKQHDELKEESKKQLEELEQTKKTLVEYQTLNGDLQNEVKSLKEEIARLQTAMSLGTVTTSVLPQTPLKDVMGGGASNFNNMMLENSDLSPNDLNLKSRSTPSSGNNHIDSLSVDRENGVNATQINEELYRLLEDTEILNQEITEGLLKGFEVPDAGVAIQLSKRDVVYPARILIIVLSEMWRFGLTKQSESFLAQVLTTIQKVVTQLKGNDLIPSGVFWLANVRELYSFVVFALNSILTEETFKNGMTDEEYKEYVSLVTELKDDFEALSYNIYNIWLKKLQKQLQKKAINAVVISESLPGFSAGETSGFLNKIFANTEEYTMDDILTFFNSIYWCMKSFHIENEVFHAVVTTLLNYVDAICFNELIMKRNFLSWKRGLQLNYNVTRLEEWCKTHGLTDGTECLQHLIQTAKLLQVRKYTIEDIDILRGICYSLTPAQLQKLISQYQVADYESPIPQEILRYVADIVKKEAALSSSGNDSKGHEHSSSIFITPETGPFTDPFSLIKTRKFDQVEAYIPAWLSLPSTKRIVDLVAQQVVQDGH
partner: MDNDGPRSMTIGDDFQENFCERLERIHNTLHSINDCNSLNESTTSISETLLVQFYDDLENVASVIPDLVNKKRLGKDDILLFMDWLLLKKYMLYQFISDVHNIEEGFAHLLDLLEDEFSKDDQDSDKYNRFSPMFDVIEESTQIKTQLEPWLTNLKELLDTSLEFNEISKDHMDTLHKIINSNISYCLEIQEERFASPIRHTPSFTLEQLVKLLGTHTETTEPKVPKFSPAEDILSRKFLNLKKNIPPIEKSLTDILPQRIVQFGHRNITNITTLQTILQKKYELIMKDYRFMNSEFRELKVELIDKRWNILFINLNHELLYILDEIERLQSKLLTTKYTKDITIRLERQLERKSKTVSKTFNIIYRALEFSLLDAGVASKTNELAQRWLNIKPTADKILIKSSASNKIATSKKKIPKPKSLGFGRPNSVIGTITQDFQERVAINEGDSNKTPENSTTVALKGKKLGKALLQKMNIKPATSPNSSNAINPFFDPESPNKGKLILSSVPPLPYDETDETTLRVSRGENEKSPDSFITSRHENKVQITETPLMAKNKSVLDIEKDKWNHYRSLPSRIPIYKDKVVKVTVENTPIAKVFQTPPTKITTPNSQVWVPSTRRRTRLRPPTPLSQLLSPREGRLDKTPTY

Variants of: B1
Conditions: with kar9_yeast KAR9, P32526

effect of a mutation on the interaction	Variant
disrupting interaction strength	Y1161F;N1171Y;L1413S;I1453V;I1498M
disrupting interaction strength	E1168K;N1254D
